Columns and labels:
[1] = molecular target: p300 full length (human) (UniProt Q09472); assay: EMSA; conditions: EMSA: 10 mM HEPES-NaOH pH 7.3, 50 mM KCl, 5 mM MgCl2, 0.5 mM DTT, 5% glycerol, 0.5 mg/ml BSA; 1 h incubation; 1 nM DNA (Fig 2B); 4% native PAGE, 0.5x TBE, 4 C
[2] = molecular target: SOX2DBD (human) (UniProt P48431); assay: EMSA; conditions: EMSA: 10 mM HEPES-NaOH pH 7.3, 50 mM KCl, 5 mM MgCl2, 0.5 mM DTT, 5% glycerol, 0.5 mg/ml BSA; 1 h incubation; 1 nM DNA (Fig 2B); 4% native PAGE, 0.5x TBE, 4 C
SOX2DBD (human), sequence (P48431 39-127): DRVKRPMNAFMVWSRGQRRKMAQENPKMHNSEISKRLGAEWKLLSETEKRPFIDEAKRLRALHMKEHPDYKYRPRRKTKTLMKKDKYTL

[3] = molecular target: SOX2 mutant E86A (human) (UniProt P48431)
SOX2 mutant E86A (human), sequence (P48431 whole entry E86A): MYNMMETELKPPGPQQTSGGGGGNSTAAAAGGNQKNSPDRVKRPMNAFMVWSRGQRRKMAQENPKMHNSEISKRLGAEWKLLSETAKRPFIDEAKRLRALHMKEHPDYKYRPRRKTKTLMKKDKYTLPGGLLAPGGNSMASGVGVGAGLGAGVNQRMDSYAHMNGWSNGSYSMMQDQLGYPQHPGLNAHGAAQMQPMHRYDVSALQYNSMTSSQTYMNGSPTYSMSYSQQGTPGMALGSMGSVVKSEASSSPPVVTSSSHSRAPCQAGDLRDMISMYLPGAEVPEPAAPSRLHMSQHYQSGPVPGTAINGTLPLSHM

[4] = molecular target: SOX2 mutant E78A (human) (UniProt P48431)
SOX2 mutant E78A (human), sequence (P48431 whole entry E78A, the tested form may be a part): as the sequence (P48431 whole entry E86A) above, with E78A, A86E counted along it

[5] = molecular target: full-length human SOX2 (human) (UniProt P48431); assay: BLI; SOX2 (0.2 mg/ml) immobilised on an AR2G chip, quenched with 1 M ethanolamine; p300 fragments in PBS; global fit to a 1:1 binding model (BLItz Pro v.1.2.1.5)
full-length human SOX2 (human), sequence (P48431 whole entry, the tested form may be a part): as the sequence (P48431 whole entry E86A) above, with A86E counted along it

p300 full length (human), sequence (Q09472 whole entry): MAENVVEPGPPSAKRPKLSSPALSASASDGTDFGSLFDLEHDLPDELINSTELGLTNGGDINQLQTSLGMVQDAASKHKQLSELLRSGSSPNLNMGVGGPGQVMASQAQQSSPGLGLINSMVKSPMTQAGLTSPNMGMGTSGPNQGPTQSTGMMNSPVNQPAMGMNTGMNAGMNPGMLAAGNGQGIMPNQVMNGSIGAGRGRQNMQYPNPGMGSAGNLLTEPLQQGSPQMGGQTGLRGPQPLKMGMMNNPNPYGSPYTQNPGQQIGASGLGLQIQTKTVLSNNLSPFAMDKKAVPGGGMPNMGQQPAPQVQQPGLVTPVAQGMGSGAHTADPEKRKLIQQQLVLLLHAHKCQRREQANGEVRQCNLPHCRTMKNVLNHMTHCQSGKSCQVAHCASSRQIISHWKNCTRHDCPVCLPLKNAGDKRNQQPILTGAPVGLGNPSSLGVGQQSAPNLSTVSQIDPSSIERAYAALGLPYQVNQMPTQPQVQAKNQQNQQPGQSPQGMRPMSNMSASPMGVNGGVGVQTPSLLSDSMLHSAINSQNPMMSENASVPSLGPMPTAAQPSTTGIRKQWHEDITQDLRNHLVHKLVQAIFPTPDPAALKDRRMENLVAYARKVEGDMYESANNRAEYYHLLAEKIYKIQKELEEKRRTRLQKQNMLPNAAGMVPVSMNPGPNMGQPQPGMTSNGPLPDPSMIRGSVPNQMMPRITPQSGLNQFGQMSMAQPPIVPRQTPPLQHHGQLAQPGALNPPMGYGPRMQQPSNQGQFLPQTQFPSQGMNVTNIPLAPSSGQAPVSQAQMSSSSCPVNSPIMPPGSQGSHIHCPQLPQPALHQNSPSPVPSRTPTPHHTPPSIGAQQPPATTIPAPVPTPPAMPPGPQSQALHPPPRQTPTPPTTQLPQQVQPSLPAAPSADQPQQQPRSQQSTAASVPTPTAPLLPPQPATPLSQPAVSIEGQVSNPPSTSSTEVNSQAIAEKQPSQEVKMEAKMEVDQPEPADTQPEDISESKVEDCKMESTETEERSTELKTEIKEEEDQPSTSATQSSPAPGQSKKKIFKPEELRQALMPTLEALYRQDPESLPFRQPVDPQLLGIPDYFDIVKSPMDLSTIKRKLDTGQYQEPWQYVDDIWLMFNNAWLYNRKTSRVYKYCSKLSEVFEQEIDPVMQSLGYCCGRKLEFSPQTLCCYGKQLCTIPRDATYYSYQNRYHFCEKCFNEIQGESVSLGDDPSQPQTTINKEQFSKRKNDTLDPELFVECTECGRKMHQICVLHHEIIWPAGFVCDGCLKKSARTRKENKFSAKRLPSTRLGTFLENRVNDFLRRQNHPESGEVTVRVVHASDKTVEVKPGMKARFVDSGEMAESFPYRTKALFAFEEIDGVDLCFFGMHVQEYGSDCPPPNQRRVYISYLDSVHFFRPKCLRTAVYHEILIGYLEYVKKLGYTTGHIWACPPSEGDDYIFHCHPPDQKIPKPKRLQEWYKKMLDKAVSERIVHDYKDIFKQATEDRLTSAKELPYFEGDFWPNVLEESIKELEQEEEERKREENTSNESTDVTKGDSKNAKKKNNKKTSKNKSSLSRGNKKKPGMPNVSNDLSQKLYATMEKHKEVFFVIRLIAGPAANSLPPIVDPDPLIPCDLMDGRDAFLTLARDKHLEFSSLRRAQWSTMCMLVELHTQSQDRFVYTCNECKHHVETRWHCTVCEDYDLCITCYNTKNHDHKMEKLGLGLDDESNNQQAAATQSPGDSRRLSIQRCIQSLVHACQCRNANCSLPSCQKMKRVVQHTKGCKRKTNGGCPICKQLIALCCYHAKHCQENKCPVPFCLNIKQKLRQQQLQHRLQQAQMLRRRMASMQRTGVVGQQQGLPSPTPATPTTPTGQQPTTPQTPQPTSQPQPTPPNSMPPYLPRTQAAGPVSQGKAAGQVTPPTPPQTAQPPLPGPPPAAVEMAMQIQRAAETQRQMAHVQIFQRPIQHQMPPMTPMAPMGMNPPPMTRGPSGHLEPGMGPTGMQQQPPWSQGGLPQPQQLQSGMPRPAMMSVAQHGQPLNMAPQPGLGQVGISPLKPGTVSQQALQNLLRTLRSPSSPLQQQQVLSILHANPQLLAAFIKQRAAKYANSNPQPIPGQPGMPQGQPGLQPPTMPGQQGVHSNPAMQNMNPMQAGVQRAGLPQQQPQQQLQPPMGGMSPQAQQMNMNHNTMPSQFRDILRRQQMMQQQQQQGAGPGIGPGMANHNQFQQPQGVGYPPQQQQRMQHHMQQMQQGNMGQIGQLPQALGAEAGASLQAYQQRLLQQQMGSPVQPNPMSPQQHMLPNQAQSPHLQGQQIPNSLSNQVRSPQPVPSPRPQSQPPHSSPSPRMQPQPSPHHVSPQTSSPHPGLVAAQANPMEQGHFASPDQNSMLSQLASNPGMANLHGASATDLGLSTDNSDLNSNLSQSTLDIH

## GCGGTCCATTATTCCAATTGATTTCAATTCTATTGATAGTCAGATTGAGAGACTCAGGTGCCTCTTTTGAATATCTTCTTTTGTTGGGGCCGCACACCCTGAGAGGTGGTGGAAGTCTGAGTTAGACTTTAGCCTGATCTACATAGCAAGTTCCGGGACATGCAAGGACTAC (double strand) [SM]
[1]
  binding: no binding
[2]
  binding signal: 71 % bound

## GTAGTCCTTGCATGTCCCGGAACTTGCTATGTAGATCAGGCTAAAGTCTAACTCAGACTTCCACCACCTCTCAGGGTGTGCGGCCCCAAGATAAGAAGATATTCAAAAGAGGCACCTGAGTCTCTCAATCTGACTATCAATAGAATTGAAATCAATTGGAATAATGGACCGC (double strand) [dSM]
[2]
  binding: no binding

## full-length p300 (Protein One), Q09472 1-2414
[3]
  luciferase activity of pGL3-SM in cells expressing the SOX2 mutant, relative to wild-type SOX2: 30%
[4]
  luciferase activity of pGL3-SM in cells expressing the SOX2 mutant, relative to wild-type SOX2: 30%

## p300 KIX domain (aa 566-646) (from UniProt Q09472 566-646) (domain or fragment)
[5]
  Kd: 2680 nM
  koff: 0.0469 s⁻¹
  kon: 12300 M⁻¹ s⁻¹

From PMC10711550
